From article PMC5599688
One block for each substance: values may come before it.

Assays:
[1] = molecular target: calnexin (rat brain) (rat (endogenous in brain)) (UniProt P35565); assay: co-IP; 10% rat brain homogenate (also NEC versus GAERS brain) in 50 mM TrisHCl pH 8.0, 300 mM NaCl, 0.5% Triton X100, 0.5% DOC; rabbit polyclonal anti-CNX overnight at 4 °C, Sepharose G beads; blotted for Cav3.2; signal normalised to precipitated calnexin
[2] = molecular target: calnexin in tsA-201 cells (not stated (endogenous human in tsA-201, or transfected mouse cDNA)) (UniProt P27824)
Chain of UniProt P27824 (P27824 21-592): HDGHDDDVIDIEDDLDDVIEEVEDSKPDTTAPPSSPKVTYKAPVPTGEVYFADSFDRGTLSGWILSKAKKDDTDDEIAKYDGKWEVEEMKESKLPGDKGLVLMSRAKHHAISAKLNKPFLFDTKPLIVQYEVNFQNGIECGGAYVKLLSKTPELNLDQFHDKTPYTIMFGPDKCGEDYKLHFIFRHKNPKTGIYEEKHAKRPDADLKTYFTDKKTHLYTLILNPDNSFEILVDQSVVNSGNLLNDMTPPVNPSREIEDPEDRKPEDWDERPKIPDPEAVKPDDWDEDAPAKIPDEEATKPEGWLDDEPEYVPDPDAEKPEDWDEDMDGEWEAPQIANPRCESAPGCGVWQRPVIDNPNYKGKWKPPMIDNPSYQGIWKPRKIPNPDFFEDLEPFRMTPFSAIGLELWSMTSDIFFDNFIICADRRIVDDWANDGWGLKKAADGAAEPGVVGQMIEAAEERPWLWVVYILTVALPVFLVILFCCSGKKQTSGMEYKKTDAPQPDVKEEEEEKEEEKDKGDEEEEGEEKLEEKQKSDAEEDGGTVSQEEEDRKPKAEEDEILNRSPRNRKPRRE

[3] = molecular target: GFP-tagged III-IV linker of rat Cav3.2 with exon 25, GAERS mutation R1584P (rat); assay: co-IP; tsA-201 cells 72 h after transfection, NP40 lysis buffer; precipitated with anti-GFP (GFP-tagged Cav3.2 regions), blotted with anti-mCherry; densitometry normalised to expression levels
Chain of GFP-tagged III-IV linker of rat Cav3.2 with exon 25, GAERS mutation R1584P (rat) (Q9EQ60 whole entry R1584P): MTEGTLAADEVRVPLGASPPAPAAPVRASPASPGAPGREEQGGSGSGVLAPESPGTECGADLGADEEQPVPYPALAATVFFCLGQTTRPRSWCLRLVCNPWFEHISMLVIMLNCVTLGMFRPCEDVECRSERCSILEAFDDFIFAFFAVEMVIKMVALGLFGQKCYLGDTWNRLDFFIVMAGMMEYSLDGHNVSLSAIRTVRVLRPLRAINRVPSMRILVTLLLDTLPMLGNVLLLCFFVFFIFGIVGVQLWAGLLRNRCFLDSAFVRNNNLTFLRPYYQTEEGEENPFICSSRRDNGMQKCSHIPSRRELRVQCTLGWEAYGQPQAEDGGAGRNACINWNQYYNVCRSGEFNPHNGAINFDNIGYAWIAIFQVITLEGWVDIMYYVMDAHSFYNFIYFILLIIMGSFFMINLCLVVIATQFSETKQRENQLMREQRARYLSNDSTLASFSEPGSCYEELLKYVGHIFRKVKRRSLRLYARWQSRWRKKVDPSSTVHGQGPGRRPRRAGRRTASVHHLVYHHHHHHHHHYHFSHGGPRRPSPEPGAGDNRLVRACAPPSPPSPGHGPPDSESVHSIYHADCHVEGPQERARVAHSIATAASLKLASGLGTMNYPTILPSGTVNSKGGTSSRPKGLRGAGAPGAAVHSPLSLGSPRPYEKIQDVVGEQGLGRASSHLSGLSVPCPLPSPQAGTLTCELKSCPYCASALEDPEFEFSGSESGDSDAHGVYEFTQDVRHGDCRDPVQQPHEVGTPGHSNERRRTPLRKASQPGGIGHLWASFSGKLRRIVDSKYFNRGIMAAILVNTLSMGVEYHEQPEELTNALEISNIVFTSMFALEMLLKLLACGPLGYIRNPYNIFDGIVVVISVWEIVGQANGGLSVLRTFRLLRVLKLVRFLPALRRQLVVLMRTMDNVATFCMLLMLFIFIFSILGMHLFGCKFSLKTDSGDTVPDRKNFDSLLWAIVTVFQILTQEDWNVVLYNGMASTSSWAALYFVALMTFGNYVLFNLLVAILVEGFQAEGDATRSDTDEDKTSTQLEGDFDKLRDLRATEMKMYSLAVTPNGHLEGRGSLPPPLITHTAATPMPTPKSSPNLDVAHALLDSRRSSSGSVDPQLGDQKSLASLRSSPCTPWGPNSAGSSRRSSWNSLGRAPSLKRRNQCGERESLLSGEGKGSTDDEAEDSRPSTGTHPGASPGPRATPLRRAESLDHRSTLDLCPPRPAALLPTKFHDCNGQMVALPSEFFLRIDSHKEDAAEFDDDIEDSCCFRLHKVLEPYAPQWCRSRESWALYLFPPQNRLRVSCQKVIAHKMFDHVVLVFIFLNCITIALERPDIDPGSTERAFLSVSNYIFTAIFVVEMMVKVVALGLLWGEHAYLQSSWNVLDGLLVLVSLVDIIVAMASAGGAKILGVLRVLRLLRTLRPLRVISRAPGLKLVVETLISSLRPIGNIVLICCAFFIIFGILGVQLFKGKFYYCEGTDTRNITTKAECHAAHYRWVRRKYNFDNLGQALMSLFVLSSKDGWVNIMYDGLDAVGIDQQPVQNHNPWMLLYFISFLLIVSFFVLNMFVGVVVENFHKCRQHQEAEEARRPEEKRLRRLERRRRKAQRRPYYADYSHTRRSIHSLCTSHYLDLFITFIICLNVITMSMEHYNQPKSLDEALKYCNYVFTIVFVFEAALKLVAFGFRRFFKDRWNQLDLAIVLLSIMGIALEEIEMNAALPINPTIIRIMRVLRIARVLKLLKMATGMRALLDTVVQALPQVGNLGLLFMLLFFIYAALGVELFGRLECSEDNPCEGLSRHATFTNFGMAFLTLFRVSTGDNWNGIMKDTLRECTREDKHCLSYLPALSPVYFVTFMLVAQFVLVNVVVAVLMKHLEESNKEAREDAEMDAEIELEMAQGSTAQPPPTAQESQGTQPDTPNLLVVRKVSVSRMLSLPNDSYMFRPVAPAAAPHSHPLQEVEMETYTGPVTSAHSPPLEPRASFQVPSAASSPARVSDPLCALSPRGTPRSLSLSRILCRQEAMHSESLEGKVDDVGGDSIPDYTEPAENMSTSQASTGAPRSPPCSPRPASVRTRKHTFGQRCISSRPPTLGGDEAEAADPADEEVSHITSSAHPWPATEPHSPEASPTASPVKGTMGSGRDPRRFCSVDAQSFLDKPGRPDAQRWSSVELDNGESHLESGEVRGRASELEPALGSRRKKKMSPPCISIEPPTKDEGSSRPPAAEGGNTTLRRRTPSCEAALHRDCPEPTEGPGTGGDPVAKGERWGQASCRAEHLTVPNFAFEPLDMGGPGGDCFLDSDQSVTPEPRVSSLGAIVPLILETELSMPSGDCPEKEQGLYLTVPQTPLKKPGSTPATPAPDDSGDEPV

[4] = molecular target: GFP-tagged III-IV linker of rat Cav3.2 without exon 25, wild type (rat); assay: as above
Chain of GFP-tagged III-IV linker of rat Cav3.2 without exon 25, wild type (rat) (Q9EQ60 whole entry, stated change not applied): as the sequence (Q9EQ60 whole entry R1584P) above, with P1584R counted along it

[5] = molecular target: GFP-tagged III-IV linker of human Cav3.2 with R1573P (human) (UniProt O95180); assay: as above
[6] = molecular target: GFP-tagged III-IV linker of rat Cav3.2 without exon 25, GAERS mutation R1584P (rat); assay: as above
Chain of GFP-tagged III-IV linker of rat Cav3.2 without exon 25, GAERS mutation R1584P (rat) (Q9EQ60 whole entry R1584P): as the sequence (Q9EQ60 whole entry R1584P) above

Chain of UniProt P35565 (P35565 21-591): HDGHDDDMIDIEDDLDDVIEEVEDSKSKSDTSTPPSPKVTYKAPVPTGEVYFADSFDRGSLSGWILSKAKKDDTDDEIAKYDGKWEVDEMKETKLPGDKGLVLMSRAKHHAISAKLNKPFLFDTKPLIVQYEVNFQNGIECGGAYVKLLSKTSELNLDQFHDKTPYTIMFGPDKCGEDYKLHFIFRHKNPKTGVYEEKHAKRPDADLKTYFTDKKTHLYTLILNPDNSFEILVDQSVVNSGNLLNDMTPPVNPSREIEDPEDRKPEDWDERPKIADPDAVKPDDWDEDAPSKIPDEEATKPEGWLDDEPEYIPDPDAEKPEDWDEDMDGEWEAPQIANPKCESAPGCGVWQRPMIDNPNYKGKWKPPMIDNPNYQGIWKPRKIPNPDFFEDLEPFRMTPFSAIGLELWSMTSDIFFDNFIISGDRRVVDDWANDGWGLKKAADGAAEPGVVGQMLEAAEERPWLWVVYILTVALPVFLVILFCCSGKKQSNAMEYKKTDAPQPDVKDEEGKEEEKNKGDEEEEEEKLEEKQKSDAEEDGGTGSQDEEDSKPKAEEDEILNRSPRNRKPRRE

decrease of Cav3.2 co-immunoprecipitated with calnexin, GAERS against NEC brain [1]: 42%
Substance: Cav3.2 T-type calcium channel of GAERS brain (R1584P), Q9EQ60 1-2359

mean peak Ba2+ current density at −20 mV, tsA-201 cells expressing HA-hCav3.2 with the soluble calnexin C-tail CNX^CD against control cells (increase) [2]: 76%
surface expression of HA-tagged Cav3.2 by immunostaining, tsA-201 cells expressing the calnexin C-tail CNX^CD against control cells (increase) [2]: 30%
Substance: HA-tagged human Cav3.2 channel, O95180 1-2353

decrease of binding against wild-type rIII-IV (+25) [3]: 82%
decrease of binding against wild-type rIII-IV (+25) [4]: 75%
decrease of co-immunoprecipitated calnexin C-tail against the wild-type III-IV linker [5]: 70%
additional decrease of binding (reference unclear: printed as against wild-type rIII-IV (+25)) [6]: 69%
Substance: mCherry-tagged calnexin lacking the luminal domain (CNX^BD) (from UniProt P35564 483-591) (domain or fragment)
